Molecular target: Translocated intimin receptor Tir of EHEC O157:H7 (enterohemorrhagic Escherichia coli O157:H7) (UniProt Q7DB77)
Experiment: cell-based or functional assay

Sequence of UniProt Q7DB77 (Q7DB77 whole entry): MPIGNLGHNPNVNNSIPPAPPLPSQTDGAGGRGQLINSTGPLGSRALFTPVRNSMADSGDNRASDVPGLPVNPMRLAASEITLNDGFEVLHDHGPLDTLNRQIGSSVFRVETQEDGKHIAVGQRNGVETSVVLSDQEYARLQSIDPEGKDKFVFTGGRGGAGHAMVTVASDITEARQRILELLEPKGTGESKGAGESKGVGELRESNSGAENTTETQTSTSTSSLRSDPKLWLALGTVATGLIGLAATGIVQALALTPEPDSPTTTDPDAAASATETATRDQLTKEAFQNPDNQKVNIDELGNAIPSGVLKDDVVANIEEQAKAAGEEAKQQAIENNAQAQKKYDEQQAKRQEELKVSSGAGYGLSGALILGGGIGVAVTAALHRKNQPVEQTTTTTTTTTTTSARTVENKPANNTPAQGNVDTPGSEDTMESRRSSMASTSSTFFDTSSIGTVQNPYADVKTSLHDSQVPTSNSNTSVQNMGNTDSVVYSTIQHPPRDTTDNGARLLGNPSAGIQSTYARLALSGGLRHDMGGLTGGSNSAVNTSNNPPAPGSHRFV

## Native intimin of EHEC O157:H7 strain 86-24 (from UniProt P43261 40-934)
  microcolonies on HeLa cells (percent of cells): 47%
